In patent US20210261643A1, “INHIBITORS OF P-TEFB MEDIATED TRANSCRIPTION” (The Regents of the University of California, priority 2018, published 2021):

Columns and labels:
[1] = test system: HEXIM1, a bona fide target of P-TEFb; experiment: HEXIM1 mRNA and protein expression in 293T cells; format: cell-based; conditions: increasing amounts of m:HT1
From the text: Since P-TEFb is a major transcription factor and regulates the expression of many cellular genes, we next assessed whether HT1 could impair host cell gene expression through inactivation of the kinase activity of CDK9. We first investigated how HT1 impacted the mRNA and protein expression levels of HEXIM1, a bona fide target of P-TEFb.

[2] = test system: HIV-1 NL43; experiment: Spreading infection with HIV-1 NL43, Gag p24 ELISA in supernatants; format: cell-based; conditions: 4 dpi
From the text: FIGS. 5A, 5B, 5C, and 5D. Stable expression of HT1 inhibits HIV replication. FIG. 5A. Stable expression of HT1 inhibits HIV-1 replication in C-HT cells. 1E+06 HT1-expressing CEM-HT cells and e control CEM cells were challenged by HIV-1 NL43 infection. FIG. 5B. Stable expression of HT1 inhibits HIV-1 replication in MO-HT cells. 1E+06 HT1-expressing MOLT4-HT cells, and control MOLT4 cells were challenged by HIV-1 NL43 infection. FIG. 5C. Stable expression of HT1 inhibits HIV-1 replication in MT-HT cells. 1E+06 HT1-expressing MT4-HT cells, and control MT4 cells were challenged by HIV-1 NL43 infection. In each of FIGS. 5A, 5B, and 5C, virus production was assessed by Gag p24 ELISA in supernatants when cells were passaged at days 0, 2 and 4, and plotted. Error bars represent standard deviation from triplicate experiments. FIG. 5D: Stable expression of HT1 doesn't inhibit early steps of HIV-1 infection in C-HT, MO-HT, and MT-HT cells. Single-round infection assays were performed in the same conditions as in FIG. 5A-C above, but using replication-defective HXB2 Env-pseudotyped HIV-1 NL43ΔenvLuc. The relative amount of HIV DNA integrated in the cells' genomic DNA was assessed after 24 h by qPCR. Error bars represent standard deviation from triplicate experiments.
On 2 dpi, virus production was detected from CEM, MOLT4 and MT4 cells and reached around 20 (CEM, MT4) to 110 (MOLT4) ng/mL p24 concentration in the supernatant on 4 dpi.

B1: HT1 (protein)
chain: KKKHRRRPSKKKRHWKPYYKLTWEEKKKFDEKQSLRASRIRAEMFAKGQPVAPYNTTQFLMDDHDQEEPDLVDMEPVDPYLEPWKHPGSQPRTACNNCYCKKCCFHCYACFTRKGLGISYG
modifications: left off: small tags and cut ends
expression level of HEXIM1 protein and mRNA [1]: did not change
p24 concentration in supernatant ([2]; C-HT cells): 5.1
p24 concentration in supernatant ([2]; MO-HT cells): 12 ng/mL
p24 concentration in supernatant ([2]; MT-HT cells): 1.3 ng/mL
